Data reported in US20200024370A1.

Molecular target: NpuN (cysteine-free, C.F.), N-terminal Npu DnaE intein segment with His tag and three C-terminal cysteines, coupled to SulfoLink resin (Nostoc punctiforme)
Assay: cell-based or functional assay

## NpuC^HN-SK^C, C-terminal intein segment with serine to histidine mutation fused to streptokinase with cysteine as +1 residue (from UniProt P00779 27-440)
  cleaving percentage (C-terminal cleavage, SDS-PAGE), in solution, room temperature, pH 8.5, 1 hour: > 50%
